According to patent US20180155407A1 (Sanofi, published 2018):
Numbered stars: 1 amine (or outer) side, 2 acyl side, 3 side chain; on linkers, the order of the positions; unused ones are H or OH. Square brackets hold non-standard residues; d marks the D form. Side chains are listed from the residue outwards. Ends that are not written are not given here. * marks the point of attachment. γGlu = O=C(O)[C@H](CCC(=O)[*:2])N[*:1]; Palmitoyl = CCCCCCCCCCCCCCCC(=O)*; gAAA = not defined here; AEEA = NCCOCCOCC(=O)O; Aib = CC(C)(N)C(=O)O

Assays:
Assay in all cases: cell-based or functional assay
[1] = biological target: human glucagon receptor (human) (UniProt P47871)
Sequence of human glucagon receptor (human) (P47871 26-477): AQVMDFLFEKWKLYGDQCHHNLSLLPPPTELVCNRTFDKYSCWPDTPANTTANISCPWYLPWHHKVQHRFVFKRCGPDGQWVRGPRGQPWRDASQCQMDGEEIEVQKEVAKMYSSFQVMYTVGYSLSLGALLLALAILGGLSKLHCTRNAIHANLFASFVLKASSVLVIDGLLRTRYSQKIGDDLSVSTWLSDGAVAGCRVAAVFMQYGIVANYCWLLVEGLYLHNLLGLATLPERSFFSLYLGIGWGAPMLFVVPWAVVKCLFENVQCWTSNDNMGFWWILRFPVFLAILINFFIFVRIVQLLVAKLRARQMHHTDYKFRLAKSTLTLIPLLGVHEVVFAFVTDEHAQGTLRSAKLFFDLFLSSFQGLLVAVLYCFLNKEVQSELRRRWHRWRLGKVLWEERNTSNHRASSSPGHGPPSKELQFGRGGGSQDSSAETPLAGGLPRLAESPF

[2] = biological target: human GLP-1 receptor (human) (UniProt P43220)
Sequence of human GLP-1 receptor (human) (P43220 24-463): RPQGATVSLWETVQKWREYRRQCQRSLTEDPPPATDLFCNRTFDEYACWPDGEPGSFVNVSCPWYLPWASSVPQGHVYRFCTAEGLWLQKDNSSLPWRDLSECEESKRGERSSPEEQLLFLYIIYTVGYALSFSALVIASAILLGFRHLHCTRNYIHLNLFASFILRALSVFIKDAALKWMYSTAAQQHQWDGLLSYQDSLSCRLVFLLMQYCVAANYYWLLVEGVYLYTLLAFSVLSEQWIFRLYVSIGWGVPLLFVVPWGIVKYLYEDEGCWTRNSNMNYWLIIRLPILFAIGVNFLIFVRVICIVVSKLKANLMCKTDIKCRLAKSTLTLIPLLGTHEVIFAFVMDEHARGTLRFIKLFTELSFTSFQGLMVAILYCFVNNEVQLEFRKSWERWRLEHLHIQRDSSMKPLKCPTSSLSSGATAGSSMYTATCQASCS

human glucagon receptor = human glucagon receptor (human, UniProt P47871 26-477)
Sequence of human glucagon receptor (P47871 26-477): as the sequence (P47871 26-477) above

human GIP receptor = biological target: T1, human GIP receptor (human, UniProt P48546 22-466)
T1 sequence (looked up): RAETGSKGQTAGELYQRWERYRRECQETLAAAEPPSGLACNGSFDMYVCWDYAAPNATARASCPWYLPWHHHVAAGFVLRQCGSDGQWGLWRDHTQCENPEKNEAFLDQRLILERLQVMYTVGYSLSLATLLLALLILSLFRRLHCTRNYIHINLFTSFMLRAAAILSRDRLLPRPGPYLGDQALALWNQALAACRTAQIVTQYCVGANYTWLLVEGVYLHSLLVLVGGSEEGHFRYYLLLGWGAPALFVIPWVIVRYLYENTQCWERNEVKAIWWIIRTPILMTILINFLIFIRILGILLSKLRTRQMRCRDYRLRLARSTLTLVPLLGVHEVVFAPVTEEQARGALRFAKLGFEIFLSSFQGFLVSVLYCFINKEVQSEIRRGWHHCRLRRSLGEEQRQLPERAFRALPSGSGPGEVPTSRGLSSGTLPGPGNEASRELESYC

human GLP-1 receptor = human GLP-1 receptor (human, UniProt P43220 24-463)

Question: Which EC50 hGlucagon R [pM] (cAMP formation) [1] does the source give for exendin-4 (peptide) here?
Answer: > 1e+07 pM

Question: What about the EC50 hGLP-1R [pM] (cAMP formation) [2] of the same molecule?
Answer: 0.4 pM

B1: SEQ ID NO: 23 (peptide)
peptide: H[Aib]QGTFTSDLSKLK([γGlu-AEEA-gAAA-Palmitoyl])EEQRQ[Aib]EFIEWLKA[dA]GHPS[Aib]KPPPK-NH2
modifications: reading uncertain
Question: With B1 as the molecule, how does the “EC50 hGlucagon R (cAMP formation)” value (human glucagon receptor) read?
Answer: 64.3 pM

Question: What about the “EC50 hGIP R (cAMP formation)” value (human GIP receptor) of the same molecule?
Answer: 2 pM

Question: What about the “EC50 hGLP-1R (cAMP formation)” value (human GLP-1 receptor) of the same molecule?
Answer: 1 pM

B2: SEQ ID NO: 21 (peptide)
peptide: H[Aib]QGTFTSDLSKLK([γGlu-AEEA-gAAA-Palmitoyl])EKQRQ[Aib]EFIEWLKA[dA]GHPS[Aib]KPPPK-NH2
modifications: reading uncertain
Question: How did the “EC50 hGlucagon R (cAMP formation)” value (human glucagon receptor) turn out when B2 was run?
Answer: 69.9 pM

Question: And the “EC50 hGIP R (cAMP formation)” value (human GIP receptor)?
Answer: 24.6 pM

Question: And the “EC50 hGLP-1R (cAMP formation)” value (human GLP-1 receptor)?
Answer: 4.2 pM

B3: SEQ ID NO: 7 (peptide)
peptide: H[Aib]QGTFTSDLSKLK([γGlu-γGlu-Palmitoyl])EKQRQ[Aib]EFIEWLKA[dA]GPPS[Aib]KPPPK-NH2
modifications: N-terminus assumed
SMILES: CCCCCCCCCCCCCCCC(=O)N[C@@H](CCC(=O)N[C@@H](CCC(=O)NCCCC[C@H](NC(=O)[C@H](CC(C)C)NC(=O)[C@H](CCCCN)NC(=O)[C@H](CO)NC(=O)[C@H](CC(C)C)NC(=O)[C@H](CC(=O)O)NC(=O)[C@H](CO)NC(=O)[C@@H](NC(=O)[C@H](Cc1ccccc1)NC(=O)[C@@H](NC(=O)CNC(=O)[C@H](CCC(N)=O)NC(=O)C(C)(C)NC(=O)[C@@H](N)Cc1c[nH]cn1)[C@@H](C)O)[C@@H](C)O)C(=O)N[C@@H](CCC(=O)O)C(=O)N[C@@H](CCCCN)C(=O)N[C@@H](CCC(N)=O)C(=O)N[C@@H](CCCNC(=N)N)C(=O)N[C@@H](CCC(N)=O)C(=O)NC(C)(C)C(=O)N[C@@H](CCC(=O)O)C(=O)N[C@@H](Cc1ccccc1)C(=O)N[C@H](C(=O)N[C@@H](CCC(=O)O)C(=O)N[C@@H](Cc1c[nH]c2ccccc12)C(=O)N[C@@H](CC(C)C)C(=O)N[C@@H](CCCCN)C(=O)N[C@@H](C)C(=O)N[C@H](C)C(=O)NCC(=O)N1CCC[C@H]1C(=O)N1CCC[C@H]1C(=O)N[C@@H](CO)C(=O)NC(C)(C)C(=O)N[C@@H](CCCCN)C(=O)N1CCC[C@H]1C(=O)N1CCC[C@H]1C(=O)N1CCC[C@H]1C(=O)N[C@@H](CCCCN)C(N)=O)[C@@H](C)CC)C(=O)O)C(=O)O
Question: Which results are given for B3?
Answer: EC50 hGlucagon R (cAMP formation) (human glucagon receptor): 21.8 pM; EC50 hGIP R (cAMP formation) (human GIP receptor): 14.2 pM; EC50 hGLP-1R (cAMP formation) (human GLP-1 receptor): 4 pM

B4: SEQ ID NO: 19 (peptide)
peptide: H[Aib]QGTFTSDLSKLK([γGlu-γGlu-AEEA-Palmitoyl])EEQRQ[Aib]EFIEWLKA[dA]GHPS[Aib]KPPPK-NH2
modifications: N-terminus assumed
SMILES: CCCCCCCCCCCCCCCC(=O)NCCOCCOCC(=O)N[C@@H](CCC(=O)N[C@@H](CCC(=O)NCCCC[C@H](NC(=O)[C@H](CC(C)C)NC(=O)[C@H](CCCCN)NC(=O)[C@H](CO)NC(=O)[C@H](CC(C)C)NC(=O)[C@H](CC(=O)O)NC(=O)[C@H](CO)NC(=O)[C@@H](NC(=O)[C@H](Cc1ccccc1)NC(=O)[C@@H](NC(=O)CNC(=O)[C@H](CCC(N)=O)NC(=O)C(C)(C)NC(=O)[C@@H](N)Cc1c[nH]cn1)[C@@H](C)O)[C@@H](C)O)C(=O)N[C@@H](CCC(=O)O)C(=O)N[C@@H](CCC(=O)O)C(=O)N[C@@H](CCC(N)=O)C(=O)N[C@@H](CCCNC(=N)N)C(=O)N[C@@H](CCC(N)=O)C(=O)NC(C)(C)C(=O)N[C@@H](CCC(=O)O)C(=O)N[C@@H](Cc1ccccc1)C(=O)N[C@H](C(=O)N[C@@H](CCC(=O)O)C(=O)N[C@@H](Cc1c[nH]c2ccccc12)C(=O)N[C@@H](CC(C)C)C(=O)N[C@@H](CCCCN)C(=O)N[C@@H](C)C(=O)N[C@H](C)C(=O)NCC(=O)N[C@@H](Cc1c[nH]cn1)C(=O)N1CCC[C@H]1C(=O)N[C@@H](CO)C(=O)NC(C)(C)C(=O)N[C@@H](CCCCN)C(=O)N1CCC[C@H]1C(=O)N1CCC[C@H]1C(=O)N1CCC[C@H]1C(=O)N[C@@H](CCCCN)C(N)=O)[C@@H](C)CC)C(=O)O)C(=O)O
Question: With B4 as the molecule, how does the “EC50 hGlucagon R (cAMP formation)” value (human glucagon receptor) read?
Answer: 52.2 pM

Question: And the “EC50 hGIP R (cAMP formation)” value (human GIP receptor)?
Answer: 7.9 pM

Question: And the “EC50 hGLP-1R (cAMP formation)” value (human GLP-1 receptor)?
Answer: 1.9 pM

B5: SEQ ID NO: 6 (peptide)
peptide: H[Aib]QGTFTSDLSKLK([γGlu-γGlu-Palmitoyl])EKQRQ[Aib]EFIEWLKAGGPPS[Aib]KPPPK-NH2
modifications: N-terminus assumed
SMILES: CCCCCCCCCCCCCCCC(=O)N[C@@H](CCC(=O)N[C@@H](CCC(=O)NCCCC[C@H](NC(=O)[C@H](CC(C)C)NC(=O)[C@H](CCCCN)NC(=O)[C@H](CO)NC(=O)[C@H](CC(C)C)NC(=O)[C@H](CC(=O)O)NC(=O)[C@H](CO)NC(=O)[C@@H](NC(=O)[C@H](Cc1ccccc1)NC(=O)[C@@H](NC(=O)CNC(=O)[C@H](CCC(N)=O)NC(=O)C(C)(C)NC(=O)[C@@H](N)Cc1c[nH]cn1)[C@@H](C)O)[C@@H](C)O)C(=O)N[C@@H](CCC(=O)O)C(=O)N[C@@H](CCCCN)C(=O)N[C@@H](CCC(N)=O)C(=O)N[C@@H](CCCNC(=N)N)C(=O)N[C@@H](CCC(N)=O)C(=O)NC(C)(C)C(=O)N[C@@H](CCC(=O)O)C(=O)N[C@@H](Cc1ccccc1)C(=O)N[C@H](C(=O)N[C@@H](CCC(=O)O)C(=O)N[C@@H](Cc1c[nH]c2ccccc12)C(=O)N[C@@H](CC(C)C)C(=O)N[C@@H](CCCCN)C(=O)N[C@@H](C)C(=O)NCC(=O)NCC(=O)N1CCC[C@H]1C(=O)N1CCC[C@H]1C(=O)N[C@@H](CO)C(=O)NC(C)(C)C(=O)N[C@@H](CCCCN)C(=O)N1CCC[C@H]1C(=O)N1CCC[C@H]1C(=O)N1CCC[C@H]1C(=O)N[C@@H](CCCCN)C(N)=O)[C@@H](C)CC)C(=O)O)C(=O)O
Question: B5 was tested. Which “EC50 hGlucagon R (cAMP formation)” value (human glucagon receptor) did it give?
Answer: 16.4 pM

Question: What about the “EC50 hGIP R (cAMP formation)” value (human GIP receptor) of the same molecule?
Answer: 7.9 pM

Question: And the “EC50 hGLP-1R (cAMP formation)” value (human GLP-1 receptor)?
Answer: 2.8 pM

B6: SEQ ID NO: 20 (peptide)
peptide: H[Aib]QGTFTSDLSKLK([γGlu-AEEA-gAAA-Palmitoyl])EKQRQ[Aib]EFIEWLKAGGHPS[Aib]KPPPK-NH2
modifications: reading uncertain
Question: What does the source list for B6?
Answer: EC50 hGlucagon R (cAMP formation) (human glucagon receptor): 44 pM; EC50 hGIP R (cAMP formation) (human GIP receptor): 12.7 pM; EC50 hGLP-1R (cAMP formation) (human GLP-1 receptor): 2.4 pM

B7: SEQ ID NO: 18 (peptide)
peptide: H[Aib]QGTFTSDLSKLK([γGlu-γGlu-AEEA-Palmitoyl])EEQRQ[Aib]EFIEWLKAGGHPS[Aib]KPPPK-NH2
modifications: N-terminus assumed
SMILES: CCCCCCCCCCCCCCCC(=O)NCCOCCOCC(=O)N[C@@H](CCC(=O)N[C@@H](CCC(=O)NCCCC[C@H](NC(=O)[C@H](CC(C)C)NC(=O)[C@H](CCCCN)NC(=O)[C@H](CO)NC(=O)[C@H](CC(C)C)NC(=O)[C@H](CC(=O)O)NC(=O)[C@H](CO)NC(=O)[C@@H](NC(=O)[C@H](Cc1ccccc1)NC(=O)[C@@H](NC(=O)CNC(=O)[C@H](CCC(N)=O)NC(=O)C(C)(C)NC(=O)[C@@H](N)Cc1c[nH]cn1)[C@@H](C)O)[C@@H](C)O)C(=O)N[C@@H](CCC(=O)O)C(=O)N[C@@H](CCC(=O)O)C(=O)N[C@@H](CCC(N)=O)C(=O)N[C@@H](CCCNC(=N)N)C(=O)N[C@@H](CCC(N)=O)C(=O)NC(C)(C)C(=O)N[C@@H](CCC(=O)O)C(=O)N[C@@H](Cc1ccccc1)C(=O)N[C@H](C(=O)N[C@@H](CCC(=O)O)C(=O)N[C@@H](Cc1c[nH]c2ccccc12)C(=O)N[C@@H](CC(C)C)C(=O)N[C@@H](CCCCN)C(=O)N[C@@H](C)C(=O)NCC(=O)NCC(=O)N[C@@H](Cc1c[nH]cn1)C(=O)N1CCC[C@H]1C(=O)N[C@@H](CO)C(=O)NC(C)(C)C(=O)N[C@@H](CCCCN)C(=O)N1CCC[C@H]1C(=O)N1CCC[C@H]1C(=O)N1CCC[C@H]1C(=O)N[C@@H](CCCCN)C(N)=O)[C@@H](C)CC)C(=O)O)C(=O)O
Question: What does the source list for B7?
Answer: EC50 hGlucagon R (cAMP formation) (human glucagon receptor): 46.6 pM; EC50 hGIP R (cAMP formation) (human GIP receptor): 5.6 pM; EC50 hGLP-1R (cAMP formation) (human GLP-1 receptor): 1.7 pM

B8: SEQ ID NO: 22 (peptide)
peptide: H[Aib]QGTFTSDLSKLK([γGlu-AEEA-gAAA-Palmitoyl])EEQRQ[Aib]EFIEWLKAGGHPS[Aib]KPPPK-NH2
modifications: reading uncertain
Question: With B8 as the molecule, how does the “EC50 hGlucagon R (cAMP formation)” value (human glucagon receptor) read?
Answer: 108 pM

Question: What about the “EC50 hGIP R (cAMP formation)” value (human GIP receptor) of the same molecule?
Answer: 6 pM

Question: What about the “EC50 hGLP-1R (cAMP formation)” value (human GLP-1 receptor) of the same molecule?
Answer: 2.1 pM
